Laboratory results published in patent publication US20140087995A1 (published 2014).
Values belong to the binder of their own block, whether it stands above or below them. Numbered stars: 1 amine (or outer) side, 2 acyl side, 3 side chain; on linkers, the order of the positions; unused ones are H or OH. Bridge positions count the residues as written; N and C are the ends. Side chains are listed from the residue outwards. Ends that are not written are not given here. * marks the point of attachment. C20 diacid = O=C(O)CCCCCCCCCCCCCCCCCCC(=O)*; C18 diacid = O=C(O)CCCCCCCCCCCCCCCCC(=O)*; C16 diacid = O=C(O)CCCCCCCCCCCCCCC(=O)*; γGlu = O=C(O)[C@H](CCC(=O)[*:2])N[*:1]; C14 diacid = O=C(O)CCCCCCCCCCCCC(=O)*

Molecular target: T1, human amylin receptor (Amylin 3(a) receptor: human calcitonin receptor co-expressed with RAMP-3) (human, UniProt P30988 25-474; O60896 24-148, limits assumed)
T1 construct: whole, on cells; Used as cell membranes prepared from the Amylin 3(a)/CRE-luc BHK cells (Assay V); the complex is called the human amylin receptor; also called hAmylin-R; hAmylinR
T1 sequence (looked up) 1: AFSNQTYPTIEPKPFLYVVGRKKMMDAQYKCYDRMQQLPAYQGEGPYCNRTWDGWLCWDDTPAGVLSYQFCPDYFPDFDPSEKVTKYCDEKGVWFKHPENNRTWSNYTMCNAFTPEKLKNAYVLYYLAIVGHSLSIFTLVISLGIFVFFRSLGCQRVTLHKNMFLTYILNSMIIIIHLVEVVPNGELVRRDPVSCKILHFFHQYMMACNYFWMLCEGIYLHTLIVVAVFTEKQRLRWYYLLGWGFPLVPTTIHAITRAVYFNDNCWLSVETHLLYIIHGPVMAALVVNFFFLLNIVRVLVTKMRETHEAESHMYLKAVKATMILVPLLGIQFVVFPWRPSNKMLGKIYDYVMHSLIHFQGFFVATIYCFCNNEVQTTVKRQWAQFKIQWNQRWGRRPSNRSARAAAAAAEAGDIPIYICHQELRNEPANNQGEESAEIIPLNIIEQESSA
T1 sequence (looked up) 2: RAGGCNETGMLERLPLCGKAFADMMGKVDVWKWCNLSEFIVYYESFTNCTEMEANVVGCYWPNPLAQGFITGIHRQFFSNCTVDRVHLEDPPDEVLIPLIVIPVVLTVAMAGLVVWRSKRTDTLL
Experiment: SPA competition binding, displacement of 125I-rat amylin from membranes of BHK cells with human calcitonin receptor + RAMP-3 (Assay V)
Description: The binding assay was performed using scintillation proximity assay (SPA) beads (RPNQ0001) from PerkinElmer and cell membranes from the Amylin 3(a)/CRE-luc cells (as described in Assay (II)) were used. Membranes were prepared in the following way; the cells were rinsed with PBS and incubated with Versene for approximately 5 min before harvesting. The cells were flushed with PBS and the cell-suspension was centrifuged for 5 min at 1000 rpm. Cells were homogenized (ultrathurrax) in a buffer containing 20 mM Na-HEPES and 10 mM EDTA (pH 7.4) and centrifuged at 20.000 rpm for 15 min. The resulting pellet was resuspended, homogenized and centrifuged (20.000 rpm, 15 min) in a buffer containing 20 mM Na-HEPES and 0.1 mM EDTA (pH 7.4, buffer 2). The resulting pellet was resuspended in buffer 2 and protein concentration was measured (BCA protein Assay, Pierce). The homogenate was kept cold during the whole procedure. The membranes were kept at −80° C. until use. The assay was performed in a 384 well Optiplate (PerkinElmer) in a total volume of 40 ul. Membranes were mixed with SPA beads. Final concentration of membranes 35 ng/μL final and SPA beads was 0.05 mg/well. Test-compounds were dissolved in DMSO and further diluted in assay buffer (50 mM Hepes, pH 7.4, 1 mM CaCl2, 5 mM MgCl₂, 0.1% OA and 0.02% Tween20). […] The final mixture was incubated with shaking at 400 rpm for 120 min at 25° C. prior to centrifugation (1500 rpm, 10 min). Samples were analyzed on TopCounter™ (Packard). The IC₅₀ was calculated using (one site binding competition analysis) GraphPad Prism5 as a measure of receptor affinity.

B1: N^ε1-[(4S)-4-carboxy-4-(13-carboxytridecanoylamino)butanoyl]-[Arg17,Pro21,Pro27,His34]-h-amylin (peptide)
peptide: K([γGlu-C14 diacid])CNTATCATQRLANFLRHSSPNFGAIPSSTNVGHNTY-NH2
modifications: disulfide 2-7; N-terminus assumed
SMILES: CC[C@H](C)[C@H](NC(=O)[C@H](C)NC(=O)CNC(=O)[C@H](Cc1ccccc1)NC(=O)[C@H](CC(N)=O)NC(=O)[C@@H]1CCCN1C(=O)[C@H](CO)NC(=O)[C@H](CO)NC(=O)[C@H](Cc1c[nH]cn1)NC(=O)[C@H](CCCNC(=N)N)NC(=O)[C@H](CC(C)C)NC(=O)[C@H](Cc1ccccc1)NC(=O)[C@H](CC(N)=O)NC(=O)[C@H](C)NC(=O)[C@H](CC(C)C)NC(=O)[C@H](CCCNC(=N)N)NC(=O)[C@H](CCC(N)=O)NC(=O)[C@@H](NC(=O)[C@H](C)NC(=O)[C@@H]1CSSC[C@H](NC(=O)[C@@H](N)CCCCNC(=O)CC[C@H](NC(=O)CCCCCCCCCCCCC(=O)O)C(=O)O)C(=O)N[C@@H](CC(N)=O)C(=O)N[C@@H]([C@@H](C)O)C(=O)N[C@@H](C)C(=O)N[C@@H]([C@@H](C)O)C(=O)N1)[C@@H](C)O)C(=O)N1CCC[C@H]1C(=O)N[C@@H](CO)C(=O)N[C@@H](CO)C(=O)N[C@H](C(=O)N[C@@H](CC(N)=O)C(=O)N[C@H](C(=O)NCC(=O)N[C@@H](Cc1c[nH]cn1)C(=O)N[C@@H](CC(N)=O)C(=O)N[C@H](C(=O)N[C@@H](Cc1ccc(O)cc1)C(N)=O)[C@@H](C)O)C(C)C)[C@@H](C)O
notes: modifications are with respect to human amylin
- IC50: 1.04 nM

B2: N^ε1-[(4S)-4-carboxy-4-(17-carboxyheptadecanoylamino)butanoyl]-[Arg17,Pro21,Pro27,His34]-h-amylin (peptide)
peptide: K([γGlu-C18 diacid])CNTATCATQRLANFLRHSSPNFGAIPSSTNVGHNTY-NH2
modifications: disulfide 2-7; N-terminus assumed
SMILES: CC[C@H](C)[C@H](NC(=O)[C@H](C)NC(=O)CNC(=O)[C@H](Cc1ccccc1)NC(=O)[C@H](CC(N)=O)NC(=O)[C@@H]1CCCN1C(=O)[C@H](CO)NC(=O)[C@H](CO)NC(=O)[C@H](Cc1c[nH]cn1)NC(=O)[C@H](CCCNC(=N)N)NC(=O)[C@H](CC(C)C)NC(=O)[C@H](Cc1ccccc1)NC(=O)[C@H](CC(N)=O)NC(=O)[C@H](C)NC(=O)[C@H](CC(C)C)NC(=O)[C@H](CCCNC(=N)N)NC(=O)[C@H](CCC(N)=O)NC(=O)[C@@H](NC(=O)[C@H](C)NC(=O)[C@@H]1CSSC[C@H](NC(=O)[C@@H](N)CCCCNC(=O)CC[C@H](NC(=O)CCCCCCCCCCCCCCCCC(=O)O)C(=O)O)C(=O)N[C@@H](CC(N)=O)C(=O)N[C@@H]([C@@H](C)O)C(=O)N[C@@H](C)C(=O)N[C@@H]([C@@H](C)O)C(=O)N1)[C@@H](C)O)C(=O)N1CCC[C@H]1C(=O)N[C@@H](CO)C(=O)N[C@@H](CO)C(=O)N[C@H](C(=O)N[C@@H](CC(N)=O)C(=O)N[C@H](C(=O)NCC(=O)N[C@@H](Cc1c[nH]cn1)C(=O)N[C@@H](CC(N)=O)C(=O)N[C@H](C(=O)N[C@@H](Cc1ccc(O)cc1)C(N)=O)[C@@H](C)O)C(C)C)[C@@H](C)O
notes: as for B1
- IC50: 0.382 nM

B4: N^ε1-[(4S)-4-carboxy-4-(15-carboxypentadecanoylamino)butanoyl]-[Arg17,Pro21,Pro27,His34]-h-amylin (peptide)
peptide: K([γGlu-C16 diacid])CNTATCATQRLANFLRHSSPNFGAIPSSTNVGHNTY-NH2
modifications: disulfide 2-7; N-terminus assumed
SMILES: CC[C@H](C)[C@H](NC(=O)[C@H](C)NC(=O)CNC(=O)[C@H](Cc1ccccc1)NC(=O)[C@H](CC(N)=O)NC(=O)[C@@H]1CCCN1C(=O)[C@H](CO)NC(=O)[C@H](CO)NC(=O)[C@H](Cc1c[nH]cn1)NC(=O)[C@H](CCCNC(=N)N)NC(=O)[C@H](CC(C)C)NC(=O)[C@H](Cc1ccccc1)NC(=O)[C@H](CC(N)=O)NC(=O)[C@H](C)NC(=O)[C@H](CC(C)C)NC(=O)[C@H](CCCNC(=N)N)NC(=O)[C@H](CCC(N)=O)NC(=O)[C@@H](NC(=O)[C@H](C)NC(=O)[C@@H]1CSSC[C@H](NC(=O)[C@@H](N)CCCCNC(=O)CC[C@H](NC(=O)CCCCCCCCCCCCCCC(=O)O)C(=O)O)C(=O)N[C@@H](CC(N)=O)C(=O)N[C@@H]([C@@H](C)O)C(=O)N[C@@H](C)C(=O)N[C@@H]([C@@H](C)O)C(=O)N1)[C@@H](C)O)C(=O)N1CCC[C@H]1C(=O)N[C@@H](CO)C(=O)N[C@@H](CO)C(=O)N[C@H](C(=O)N[C@@H](CC(N)=O)C(=O)N[C@H](C(=O)NCC(=O)N[C@@H](Cc1c[nH]cn1)C(=O)N[C@@H](CC(N)=O)C(=O)N[C@H](C(=O)N[C@@H](Cc1ccc(O)cc1)C(N)=O)[C@@H](C)O)C(C)C)[C@@H](C)O
notes: as for B1
- IC50: 0.58 nM

Results, then the binder that gave them:

- IC50: 0.196 nM
B3: N^ε1-[(4S)-4-carboxy-4-(19-carboxynonadecanoylamino)butanoyl]-[Asp14,Arg17,Pro21,Pro27,Pro34,Glu35]-h-amylin (peptide)
peptide: K([γGlu-C20 diacid])CNTATCATQRLADFLRHSSPNFGAIPSSTNVGPETY-NH2
modifications: disulfide 2-7; N-terminus assumed
SMILES: CC[C@H](C)[C@H](NC(=O)[C@H](C)NC(=O)CNC(=O)[C@H](Cc1ccccc1)NC(=O)[C@H](CC(N)=O)NC(=O)[C@@H]1CCCN1C(=O)[C@H](CO)NC(=O)[C@H](CO)NC(=O)[C@H](Cc1c[nH]cn1)NC(=O)[C@H](CCCNC(=N)N)NC(=O)[C@H](CC(C)C)NC(=O)[C@H](Cc1ccccc1)NC(=O)[C@H](CC(=O)O)NC(=O)[C@H](C)NC(=O)[C@H](CC(C)C)NC(=O)[C@H](CCCNC(=N)N)NC(=O)[C@H](CCC(N)=O)NC(=O)[C@@H](NC(=O)[C@H](C)NC(=O)[C@@H]1CSSC[C@H](NC(=O)[C@@H](N)CCCCNC(=O)CC[C@H](NC(=O)CCCCCCCCCCCCCCCCCCC(=O)O)C(=O)O)C(=O)N[C@@H](CC(N)=O)C(=O)N[C@@H]([C@@H](C)O)C(=O)N[C@@H](C)C(=O)N[C@@H]([C@@H](C)O)C(=O)N1)[C@@H](C)O)C(=O)N1CCC[C@H]1C(=O)N[C@@H](CO)C(=O)N[C@@H](CO)C(=O)N[C@H](C(=O)N[C@@H](CC(N)=O)C(=O)N[C@H](C(=O)NCC(=O)N1CCC[C@H]1C(=O)N[C@@H](CCC(=O)O)C(=O)N[C@H](C(=O)N[C@@H](Cc1ccc(O)cc1)C(N)=O)[C@@H](C)O)C(C)C)[C@@H](C)O
notes: as for B1

- IC50: 0.281 nM
B5: N^ε1-[(4S)-4-carboxy-4-(19-carboxynonadecanoylamino)butanoyl]-[Asp14,Arg17,Pro21,Pro27,Pro34,Arg35]-h-amylin (peptide)
peptide: K([γGlu-C20 diacid])CNTATCATQRLADFLRHSSPNFGAIPSSTNVGPRTY-NH2
modifications: disulfide 2-7; N-terminus assumed
SMILES: CC[C@H](C)[C@H](NC(=O)[C@H](C)NC(=O)CNC(=O)[C@H](Cc1ccccc1)NC(=O)[C@H](CC(N)=O)NC(=O)[C@@H]1CCCN1C(=O)[C@H](CO)NC(=O)[C@H](CO)NC(=O)[C@H](Cc1c[nH]cn1)NC(=O)[C@H](CCCNC(=N)N)NC(=O)[C@H](CC(C)C)NC(=O)[C@H](Cc1ccccc1)NC(=O)[C@H](CC(=O)O)NC(=O)[C@H](C)NC(=O)[C@H](CC(C)C)NC(=O)[C@H](CCCNC(=N)N)NC(=O)[C@H](CCC(N)=O)NC(=O)[C@@H](NC(=O)[C@H](C)NC(=O)[C@@H]1CSSC[C@H](NC(=O)[C@@H](N)CCCCNC(=O)CC[C@H](NC(=O)CCCCCCCCCCCCCCCCCCC(=O)O)C(=O)O)C(=O)N[C@@H](CC(N)=O)C(=O)N[C@@H]([C@@H](C)O)C(=O)N[C@@H](C)C(=O)N[C@@H]([C@@H](C)O)C(=O)N1)[C@@H](C)O)C(=O)N1CCC[C@H]1C(=O)N[C@@H](CO)C(=O)N[C@@H](CO)C(=O)N[C@H](C(=O)N[C@@H](CC(N)=O)C(=O)N[C@H](C(=O)NCC(=O)N1CCC[C@H]1C(=O)N[C@@H](CCCNC(=N)N)C(=O)N[C@H](C(=O)N[C@@H](Cc1ccc(O)cc1)C(N)=O)[C@@H](C)O)C(C)C)[C@@H](C)O
notes: as for B1
